The source of these data is paper PMC11764276 (Molecular Therapy, 2024).

Where a chain is given by its changes, count along the chain named. A value given as a limit tells only on which side of the number the result lay.

Experiment [1] deals with T1, RBD (residues 334–527 of the SARS-CoV-2 spike glycoprotein) (SARS-CoV-2, wild type (Wuhan-Hu-1 / …, UniProt P0DTC2)).
T1 construct: also called COV2_RBD-his; WT RBD
The experiment is described as follows: SPR; Biacore 8k; antibody captured on a Series S Protein A chip to ~200 RU or greater; 4X serially diluted RBD starting at 1,000 nM flowed at 50 uL/min, 120 s contact, 600 s dissociation; HBS-EP+ buffer; 1:1 Langmuir fitting, steady state analysis, or two-state reaction fitting. Particulars: both partners purified. For orientation: In SPR one partner is held on a chip, and binding of the other changes the refractive index at the surface.

Experiment [2] addresses T1, RBD (residues 334–527 of the SARS-CoV-2 …). The experiment is described as follows: cell-based or functional assay.
The target is the same in experiment [3]. The experiment is described as follows: ELISA; plates coated with anti-his antibody, 10 ug/mL COV2_RBD-his captured; antibody from 8 ug/mL, 5X dilution series, in duplicate, 1 h at RT; anti-human-Fc-HRP detection; AUC divided by that of 2196 WT. The following applies: both partners purified.

B1: 2196 WT (recombinant mAb COV2-2196) (antibody, V domains shown)
VH: QMQLVQSGPEVKKPGTSVKVSCKASGFTFMSSAVQWVRQARGQRLEWIGWIVIGSGNTNYAQKFQERVTITRDMSTSTAYMELSSLRSEDTAVYYCAAPYCSSISCNDGFDIWGQGTMVTVSS
VL: not shown
notes: heavy chain of COV2-2196 (IGHV1-58); light chain of COV2-2196 (IGKV3-20); Whole human IgG (captured on Protein A, detected by anti-human Fc); HC vector with IgG VH leader (UniProt Q9Y298), LC vector with IGKV4-1 leader (UniProt P06312); also called WT 2196; COV-2196
The Kd is the equilibrium constant for the complex coming apart. Molecule B1 registered an equilibrium dissociation constant (Kd) in experiment [1] of 1.8 nM. Besides, the “IC50 of neutralization of SARS-CoV-2 (USA-WA1/2020 spike) pseudovirus on HuCHOAce2 cells” value in experiment [2] was determined as 0.08 ng/mL.

B2: 2196 HC + 2072 LC (antibody, V domains shown)
VH: B1 VH
VL: not shown
notes: as the heavy chain of m2; light chain of antibody 2072 (IGKV3-20, clonally related to COV2-2196); Kabat numbering; also called DMAb-2196-HC + DMAb-2072-LC
For B2, binding in experiment [1] was characterised by a dissociation constant (Kd) of 14.3 nM.

B3: DMAb-2196_des2_GP (antibody, V domains shown)
VH: B1 VH
VL: EIVLTQSPGTLSLSPGERATLSCRASQTISNSYVAWYQQKPGQAPRLLIYGASSRATGIPDRFSGSGSGTDFTLTISRLEPEDFAVYYCQHYGSSGPWTFGQGTKVEIK
notes: Whole human IgG; also called DMAb-Des2_GP
On to B3, for which, in experiment [1], the binding result is “binds”.

B4: 2196_CDRL1_des2 (antibody, V domains shown)
VH: B1 VH
VL: B3 VL with G96R, P97G
notes: as the heavy chain of m2; as the light chain of m2, with the CDRL1 and CDRL1-adjacent residues of alphamod1 but residues 31 and 32 kept as in 2196 WT; Kabat numbering; Whole human IgG; also called DMAb-Des2; DMAb-2196_Des2
In the case of B4, in experiment [3], the “AUC ratio to 2196 WT” value is greater than 0.975 and the “fold change of IC50 against 2196 WT” value was less than 2.14 fold.

B5: 2196_CDRL3_Q (antibody, V domains shown)
VH: B1 VH
VL: not shown
notes: Whole human IgG; also called DMAb-Q
As to B5, in experiment [3], the “AUC ratio to 2196 WT” value is greater than 0.975 and the “fold change of IC50 against 2196 WT” value was less than 2.14 fold.

B6: DMAb-2196_AFS_(AA_NT)_var3 (antibody, V domains shown)
VH: B1 VH
VL: B3 VL with I2V, T28S, I29V, N31S, V34L, Y50F, S77T, F84S, G96R, P97G
notes: Whole human IgG; also called AFS variant var3
Turning to B6, the Kd in experiment [1] stood at 3.2 nM. The “IC50 of neutralization of SARS-CoV-2 pseudovirus on HuCHOAce2 cells” value in experiment [2] stood at 0.06 ng/mL.

B7: DMAb-2196_AFS_(AA_NT)_var2 (antibody, V domains shown)
VH: B1 VH
VL: B3 VL with I2V, K40R, T57A, G96R, P97G
notes: Whole human IgG; also called AFS variant var2
Turning to B7, binding in experiment [1] was characterised by a dissociation constant (Kd) of 1.6 nM. Besides, in experiment [2], the “IC50 of neutralization of SARS-CoV-2 pseudovirus on HuCHOAce2 cells” value is 0.05 ng/mL.

B8: 2196_CDRL3_GP (antibody, V domains shown)
VH: B1 VH
VL: not shown
notes: Whole human IgG; The designs are said to be based on positions 95 and 95A, so the proline probably stands at 95A; also called DMAb-GP
Turning to B8, in experiment [3], the “AUC ratio to 2196 WT” value was greater than 0.975 and the “fold change of IC50 against 2196 WT” value is less than 2.14 fold.
